Experimental findings from article PMC7733260, “Long non-coding RNA NEAT1 promotes bone metastasis of prostate cancer through N6-methyladenosine” are described below.

In one data set the target is T1, CYCLINL1 (cyclin L1) (UniProt Q9UK58 1-526).
T1 sequence: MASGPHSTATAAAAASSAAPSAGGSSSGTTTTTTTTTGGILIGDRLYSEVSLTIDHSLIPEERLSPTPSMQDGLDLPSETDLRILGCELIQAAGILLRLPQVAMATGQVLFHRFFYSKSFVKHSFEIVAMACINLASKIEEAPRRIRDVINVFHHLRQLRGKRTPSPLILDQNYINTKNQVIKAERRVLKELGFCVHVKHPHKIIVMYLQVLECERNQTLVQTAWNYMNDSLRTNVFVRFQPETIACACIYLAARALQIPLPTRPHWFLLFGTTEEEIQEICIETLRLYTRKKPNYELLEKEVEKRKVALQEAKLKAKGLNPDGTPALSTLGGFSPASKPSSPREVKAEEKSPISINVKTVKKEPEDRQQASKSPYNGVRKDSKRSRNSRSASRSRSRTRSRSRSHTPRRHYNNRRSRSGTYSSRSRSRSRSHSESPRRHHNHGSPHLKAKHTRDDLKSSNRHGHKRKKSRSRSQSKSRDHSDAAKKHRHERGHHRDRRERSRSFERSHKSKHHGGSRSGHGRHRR
Put plainly: EMSA; 10 mM Mg2+, tRNA, RNase T1; EMSA: 10 mM Tris-Cl pH 7.5, 25 mM KCl, 10 mM MgCl2, 1 mM DTT, 100 ng/ml tRNA, 25 C 30 min, then RNase T1 37 C 15 min. Pull-down: lysate in 50 mM Tris-HCl pH 7.5, 150 mM NaCl, 1% NP-40, 0.1% SDS, 4 C 12 h; wash 50 mM Tris pH 7.4, 150 mM NaCl, 0.05% NP-40, 1 mM MgCl2. The conditions noted are these: protein: ivt; tags: Myc; label: 3' biotin. In general terms: A gel shift assay detects complexes by their altered migration in electrophoresis.

In another data set the target is CDK19 (UniProt Q9BWU1 1-502). The description is as above. The conditions noted are these: protein: ivt; tags: Flag; label: 3' biotin.
CDK19, sequence (Q9BWU1 whole entry): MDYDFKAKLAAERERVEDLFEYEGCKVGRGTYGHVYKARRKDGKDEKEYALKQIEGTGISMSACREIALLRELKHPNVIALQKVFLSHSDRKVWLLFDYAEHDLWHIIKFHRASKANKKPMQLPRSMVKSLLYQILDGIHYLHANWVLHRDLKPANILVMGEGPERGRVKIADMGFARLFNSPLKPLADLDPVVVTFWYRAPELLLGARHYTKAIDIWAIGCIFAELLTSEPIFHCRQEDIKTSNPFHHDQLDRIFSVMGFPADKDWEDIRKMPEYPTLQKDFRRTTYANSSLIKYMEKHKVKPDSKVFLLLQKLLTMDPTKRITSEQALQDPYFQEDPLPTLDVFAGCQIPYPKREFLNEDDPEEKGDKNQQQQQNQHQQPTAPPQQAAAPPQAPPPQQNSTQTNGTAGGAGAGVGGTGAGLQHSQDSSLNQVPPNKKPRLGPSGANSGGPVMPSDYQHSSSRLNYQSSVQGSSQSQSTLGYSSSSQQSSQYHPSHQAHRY

B1: Probe m6A in Fig3e (NEAT1-1 site #4) (ssRNA)
RNA: UUAUUUUUAUCGUUGGGAUCUUUCUGUCUUCUGGGUUCCAUUUUUUAAAUGUUUAAAAAUAUGUUGACAUGGUAGUUCAGUUCUUAACCAAUGACUUGGGGAUGA
modifications: m6A at site #4 (A3494); stoichiometry and installation not stated
Take B1: the binding result in the data set with CYCLINL1 (cyclin L1) is on record as “binds”.

On to GCAGCCCCUUUUUUUCCAGACCAAGGGCUGUGA (ssRNA) [Probe WT in Fig3e (NEAT1-1 U-rich)], for which the binding result with CDK19 is “binds”.
